# Test results as given in paper PMC4215112.
# B1: Bet v 1.0101 peptide I56 to D69 [modified: biotin at the N-terminus, before the additional glycine; biotin at the N-terminus, before the additional glycine] [birch] / M0418 scFv-Fcε fusion protein [human] (parent)
# chain 1: QVQLVQSGAEVKKPGESLKISCKGSEYSFPNYWIAWVRQMPGKGLEWMGMIYPGDSDTRYSPSFQGQVNISADKSSRTAFLEWSSLKASDSATYFCARLGGQLWNSYYYYYYMDVWGKGTTVTVSSGGGGSGGGGSGGGGSSYELTQPPSASGTPGQRVTISCSGSSSNIGGNTVNWYQQVPGTAPRLLIYKNNQRPSGVPDRFSGSKSGTSASLAISGLRSEDEADYYCEAWDGGLRGGVFGGGTKLTVLGDYKDDDDKAAA
# chain 2: GISFPEGFPFKYVKDG
# Variants of: B1
# Experiment: ELISA
# Settings: with M0418 scFv-Fcε fusion protein [human], read off a plot
Variant,screen value (10X dilution) [%],screen value (100X dilution) [%]
chain 2 GASFPEGFPFKYVKDG [chain 2 I2A],5,76
chain 2 GISFPEGAPFKYVKDG [chain 2 F8A],95,98
chain 2 GISFPEGFPFKYAKDG [chain 2 V13A],-0,-0
chain 2 GISFPAGFPFKYVKDG [chain 2 E6A],-0,14
chain 2 GISAPEGFPFKYVKDG [chain 2 F4A],-0,37
chain 2 GISFPEGFAFKYVKDG [chain 2 P9A],95,98
chain 2 GISFPEAFPFKYVKDG [chain 2 G7A],43,83
chain 2 GISFPEGFPFKYVADG [chain 2 K14A],-0,-0
chain 2 GISFPEGFPAKYVKDG [chain 2 F10A],-0,38
chain 2 GIAFPEGFPFKYVKDG [chain 2 S3A],-0,9
chain 2 GISFAEGFPFKYVKDG [chain 2 P5A],96,98
chain 2 GISFPEGFPFAYVKDG [chain 2 K11A],95,98
chain 2 GISFPEGFPFKAVKDG [chain 2 Y12A],3,79
chain 2 GISFPEGFPFKYVKAG [chain 2 D15A],-0,-0
